B1: Multidrug efflux pump accessory protein AcrZ (Escherichia coli (strain K12)), P0AAW9 (parent)
chain: MLELLKSLVFAVIMVPVVMAIILGLIYGLGEVFNIFSGVGKKDQPGQNH
partner: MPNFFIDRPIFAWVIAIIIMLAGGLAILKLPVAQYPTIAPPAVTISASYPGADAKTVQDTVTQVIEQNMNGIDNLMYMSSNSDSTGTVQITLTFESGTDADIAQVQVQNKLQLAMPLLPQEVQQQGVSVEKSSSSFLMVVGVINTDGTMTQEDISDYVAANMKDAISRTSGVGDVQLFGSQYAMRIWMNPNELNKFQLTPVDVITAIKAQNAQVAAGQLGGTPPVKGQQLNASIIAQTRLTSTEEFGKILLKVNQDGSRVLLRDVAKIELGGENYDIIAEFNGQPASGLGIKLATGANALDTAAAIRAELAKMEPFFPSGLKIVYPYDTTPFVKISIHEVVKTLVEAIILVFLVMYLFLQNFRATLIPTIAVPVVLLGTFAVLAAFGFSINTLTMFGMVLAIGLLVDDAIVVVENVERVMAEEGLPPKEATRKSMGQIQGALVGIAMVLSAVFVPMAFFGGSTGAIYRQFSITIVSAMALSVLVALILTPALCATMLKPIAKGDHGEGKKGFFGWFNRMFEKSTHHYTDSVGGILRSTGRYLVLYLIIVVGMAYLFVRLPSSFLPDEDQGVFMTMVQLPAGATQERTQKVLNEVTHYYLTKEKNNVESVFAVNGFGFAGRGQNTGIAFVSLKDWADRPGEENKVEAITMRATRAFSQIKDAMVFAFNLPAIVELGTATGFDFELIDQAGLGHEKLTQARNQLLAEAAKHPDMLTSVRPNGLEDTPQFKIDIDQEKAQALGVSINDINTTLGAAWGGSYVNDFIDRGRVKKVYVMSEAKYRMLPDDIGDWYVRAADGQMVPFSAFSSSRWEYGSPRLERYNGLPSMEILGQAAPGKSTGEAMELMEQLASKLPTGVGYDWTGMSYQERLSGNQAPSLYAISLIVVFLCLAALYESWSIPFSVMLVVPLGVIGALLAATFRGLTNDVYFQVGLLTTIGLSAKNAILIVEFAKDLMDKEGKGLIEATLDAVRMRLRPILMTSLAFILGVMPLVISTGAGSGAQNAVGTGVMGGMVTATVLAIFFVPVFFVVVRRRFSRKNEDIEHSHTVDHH

Variants of: B1
Conditions: with acrb_ecoli acrB

| effect of a mutation on the interaction | Variant |
| --- | --- |
| disrupting interaction | G30R |

Reference: IntAct's records for PubMed 23010927
